{"source": "paper PMC3161980", "target": "plate-bound HA", "assay": "ELISA", "note": "Where “and” joins values, the source holds several entries; their conditions need not be identical. Equal entries are not always repeated."}
{"substance": "NKp30-Fc: long (canonical) ectodomain of NKp30 fused to the Fc portion of human IgG1 (from UniProt O14931 19-135) (Fc fusion)", "values": [{"measurement": "fold stronger ELISA labeling than NKp46-Fc", "value": "1.5 fold and 2 fold"}]}
